Source: patent US20230002480A1

Assays:
Experiment in all cases: cell-based or functional assay
[1] = target: HIV-1 Env of pseudovirus 1006_11_C3_1601 (HIV-1)
[2] = target: HIV-1 Env of pseudovirus 1012_11_TC21_3257 (HIV-1)
[3] = target: HIV-1 Env of pseudovirus 1394C9G1(Rev-) (HIV-1)
[4] = target: HIV-1 Env of pseudovirus 191955_A11 (HIV-1)
[5] = target: HIV-1 Env of pseudovirus 211-9 (HIV-1)
[6] = target: HIV-1 Env of pseudovirus 235-47 (HIV-1)
[7] = target: HIV-1 Env of pseudovirus 249M B10 (HIV-1)
[8] = target: HIV-1 Env of pseudovirus 62357_14_D3_4589 (HIV-1)
[9] = target: HIV-1 Env of pseudovirus 6240_08_TA5_4622 (HIV-1)
[10] = target: HIV-1 Env of pseudovirus BF1266.431a (HIV-1)
[11] = target: HIV-1 Env of pseudovirus BJOX009000.02.4 (HIV-1)
[12] = target: HIV-1 Env of pseudovirus BJOX015000.11.5 (HIV-1)
[13] = target: HIV-1 Env of pseudovirus C4118.c09 (HIV-1)
[14] = target: HIV-1 Env of pseudovirus CAP45.2.00.G3 (HIV-1)
[15] = target: HIV-1 Env of pseudovirus CNE17 (HIV-1)
[16] = target: HIV-1 Env of pseudovirus CNE19 (HIV-1)
[17] = target: HIV-1 Env of pseudovirus CNE30 (HIV-1)
[18] = target: HIV-1 Env of pseudovirus CNE58 (HIV-1)
[19] = target: HIV-1 Env of pseudovirus Ce703010054_2A2 (HIV-1)
[20] = target: HIV-1 Env of pseudovirus Du156.12 (HIV-1)
[21] = target: HIV-1 Env of pseudovirus Du422.1 (HIV-1)
[22] = target: HIV-1 Env of pseudovirus HIV-16055-2.3 (HIV-1)
[23] = target: HIV-1 Env of pseudovirus P0402_c2_11 (HIV-1)
[24] = target: HIV-1 Env of pseudovirus Q259.d2.17 (HIV-1)
[25] = target: HIV-1 Env of pseudovirus Q842.d12 (HIV-1)
[26] = target: HIV-1 Env of pseudovirus R2184.c04 (HIV-1)
[27] = target: HIV-1 Env of pseudovirus RHPA4259.7 (HIV-1)
[28] = target: HIV-1 Env of pseudovirus SC422661.8 (HIV-1)
[29] = target: HIV-1 Env of pseudovirus X1254_c3 (HIV-1)
[30] = target: HIV-1 Env of pseudovirus ZM109F.PB4 (HIV-1)
[31] = target: HIV-1 Env of pseudovirus ZM53M.PB12 (HIV-1)

N49P7 (antibody)
neutralization IC50 [1]: 0.044 µg/mL | neutralization IC80 [1]: 0.158 µg/mL | neutralization MPI [1]: 100 | neutralization IC50 [2]: 0.046 µg/mL | neutralization IC80 [2]: 0.125 µg/mL | neutralization MPI [2]: 100 | neutralization IC50 [3]: 3.84 µg/mL | neutralization IC80 [3]: 21.1 µg/mL | neutralization MPI [3]: 94 | neutralization IC50 [4]: 1.81 µg/mL | neutralization IC80 [4]: 8.87 µg/mL | neutralization MPI [4]: 99 | neutralization IC50 [5]: 0.22 µg/mL | neutralization IC80 [5]: 0.767 µg/mL | neutralization MPI [5]: 100 | neutralization IC50 [6]: 0.045 µg/mL | neutralization IC80 [6]: 0.3 µg/mL | neutralization MPI [6]: 99 | neutralization IC50 [7]: 0.081 µg/mL | neutralization IC80 [7]: 0.377 µg/mL | neutralization MPI [7]: 100 | neutralization IC50 [8]: 0.025 µg/mL | neutralization IC80 [8]: 0.102 µg/mL | neutralization MPI [8]: 100 | neutralization IC50 [9]: 0.457 µg/mL | neutralization IC80 [9]: 1.73 µg/mL | neutralization MPI [9]: 100 | neutralization IC50 [10]: 0.057 µg/mL | neutralization IC80 [10]: 0.199 µg/mL | neutralization MPI [10]: 100 | neutralization IC50 [11]: 0.113 µg/mL | neutralization IC80 [11]: 0.506 µg/mL | neutralization MPI [11]: 100 | neutralization IC50 [12]: 0.036 µg/mL | neutralization IC80 [12]: 0.157 µg/mL | neutralization MPI [12]: 100 | neutralization IC50 [13]: 0.043 µg/mL | neutralization IC80 [13]: 0.147 µg/mL | neutralization MPI [13]: 100 | neutralization IC50 [14]: 0.06 µg/mL | neutralization IC80 [14]: 0.29 µg/mL | neutralization MPI [14]: 100 | neutralization IC50 [15]: 0.126 µg/mL | neutralization IC80 [15]: 0.46 µg/mL | neutralization MPI [15]: 100 | neutralization IC50 [16]: 0.009 µg/mL | neutralization IC80 [16]: 0.041 µg/mL | neutralization MPI [16]: 100 | neutralization IC50 [17]: 0.18 µg/mL | neutralization IC80 [17]: 0.609 µg/mL | neutralization MPI [17]: 100 | neutralization IC50 [18]: 0.029 µg/mL | neutralization IC80 [18]: 0.067 µg/mL | neutralization MPI [18]: 100 | neutralization IC50 [19]: 0.132 µg/mL | neutralization IC80 [19]: 0.466 µg/mL | neutralization MPI [19]: 100 | neutralization IC50 [20]: 0.032 µg/mL | neutralization IC80 [20]: 0.086 µg/mL | neutralization MPI [20]: 100 | neutralization IC50 [21]: 4.5 µg/mL | neutralization IC80 [21]: 19.5 µg/mL | neutralization MPI [21]: 93 | neutralization IC50 [22]: 0.057 µg/mL | neutralization IC80 [22]: 0.28 µg/mL | neutralization MPI [22]: 100 | neutralization IC50 [23]: 0.014 µg/mL | neutralization IC80 [23]: 0.061 µg/mL | neutralization MPI [23]: 100 | neutralization IC50 [24]: 0.332 µg/mL | neutralization IC80 [24]: 2.47 µg/mL | neutralization MPI [24]: 98 | neutralization IC50 [25]: 0.021 µg/mL | neutralization IC80 [25]: 0.06 µg/mL | neutralization MPI [25]: 100 | neutralization IC50 [26]: 0.011 µg/mL | neutralization IC80 [26]: 0.031 µg/mL | neutralization MPI [26]: 100 | neutralization IC50 [27]: 0.083 µg/mL | neutralization IC80 [27]: 0.246 µg/mL | neutralization MPI [27]: 100 | neutralization IC50 [28]: 0.114 µg/mL | neutralization IC80 [28]: 0.32 µg/mL | neutralization MPI [28]: 100 | neutralization IC50 [29]: 2.97 µg/mL | neutralization IC80 [29]: 13.6 µg/mL | neutralization MPI [29]: 100 | neutralization IC50 [30]: 0.034 µg/mL | neutralization IC80 [30]: 0.153 µg/mL | neutralization MPI [30]: 100 | neutralization IC50 [31]: 0.251 µg/mL | neutralization IC80 [31]: 0.8 µg/mL | neutralization MPI [31]: 100

PG16 (antibody)
IC50, titer in TZM.bl cells [1]: > 50 µg/mL | IC80, titer in TZM.bl cells [1]: > 50 µg/mL | IC50, titer in TZM.bl cells [2]: 0.03 µg/mL | IC80, titer in TZM.bl cells [2]: 0.219 µg/mL | IC50, titer in TZM.bl cells [3]: 0.008 µg/mL | IC80, titer in TZM.bl cells [3]: 0.056 µg/mL | IC50, titer in TZM.bl cells [4]: 0.009 µg/mL | IC80, titer in TZM.bl cells [4]: 0.042 µg/mL | IC50, titer in TZM.bl cells [7]: 0.026 µg/mL | IC80, titer in TZM.bl cells [7]: 1.25 µg/mL | IC50, titer in TZM.bl cells [8]: > 50 µg/mL | IC80, titer in TZM.bl cells [8]: > 50 µg/mL | IC50, titer in TZM.bl cells [9]: > 50 µg/mL | IC80, titer in TZM.bl cells [9]: > 50 µg/mL | IC50, titer in TZM.bl cells [10]: 0.003 µg/mL | IC80, titer in TZM.bl cells [10]: 0.009 µg/mL | IC50, titer in TZM.bl cells [14]: 0.001 µg/mL | IC80, titer in TZM.bl cells [14]: 0.003 µg/mL | IC50, titer in TZM.bl cells [15]: 0.029 µg/mL | IC80, titer in TZM.bl cells [15]: 0.132 µg/mL | IC50, titer in TZM.bl cells [16]: 0.024 µg/mL | IC80, titer in TZM.bl cells [16]: 3.07 µg/mL | IC50, titer in TZM.bl cells [17]: > 50 µg/mL | IC80, titer in TZM.bl cells [17]: > 50 µg/mL | IC50, titer in TZM.bl cells [18]: 0.044 µg/mL | IC80, titer in TZM.bl cells [18]: 0.25 µg/mL | IC50, titer in TZM.bl cells [19]: 0.008 µg/mL | IC80, titer in TZM.bl cells [19]: 0.053 µg/mL | IC50, titer in TZM.bl cells [20]: 0.006 µg/mL | IC80, titer in TZM.bl cells [20]: 0.026 µg/mL | IC50, titer in TZM.bl cells [21]: 0.261 µg/mL | IC80, titer in TZM.bl cells [21]: 33.8 µg/mL | IC50, titer in TZM.bl cells [22]: 0.17 µg/mL | IC80, titer in TZM.bl cells [22]: > 0.25 µg/mL | IC50, titer in TZM.bl cells [24]: 0.065 µg/mL | IC80, titer in TZM.bl cells [24]: 45.9 µg/mL | IC50, titer in TZM.bl cells [25]: 0.032 µg/mL | IC80, titer in TZM.bl cells [25]: > 0.25 µg/mL | IC50, titer in TZM.bl cells [27]: 0.375 µg/mL | IC80, titer in TZM.bl cells [27]: 3.92 µg/mL | IC50, titer in TZM.bl cells [28]: 0.858 µg/mL | IC80, titer in TZM.bl cells [28]: > 50 µg/mL | IC50, titer in TZM.bl cells [30]: 7.03 µg/mL | IC80, titer in TZM.bl cells [30]: > 50 µg/mL | IC50, titer in TZM.bl cells [31]: 0.007 µg/mL | IC80, titer in TZM.bl cells [31]: 0.051 µg/mL
